This experiment has as its target arfg1_rat Arfgap1 (UniProt Q62848).
arfg1_rat Arfgap1, sequence (Q62848 whole entry): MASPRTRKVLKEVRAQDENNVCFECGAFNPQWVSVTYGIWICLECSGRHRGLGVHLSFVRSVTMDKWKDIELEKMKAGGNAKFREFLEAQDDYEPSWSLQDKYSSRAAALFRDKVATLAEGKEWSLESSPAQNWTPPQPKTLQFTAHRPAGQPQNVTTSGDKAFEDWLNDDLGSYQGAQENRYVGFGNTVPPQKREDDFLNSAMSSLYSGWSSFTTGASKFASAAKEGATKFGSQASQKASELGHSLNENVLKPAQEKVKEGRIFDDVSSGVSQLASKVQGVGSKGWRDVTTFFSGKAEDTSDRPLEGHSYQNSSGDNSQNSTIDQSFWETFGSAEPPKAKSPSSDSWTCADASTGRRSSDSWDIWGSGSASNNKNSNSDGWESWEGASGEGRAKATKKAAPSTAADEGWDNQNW
Take “Leucine-rich repeat serine/threonine-protein kinase 2 (Homo sapiens), Q5S007 G2019S”: the “effect of a mutation on the interaction” value was “increasing interaction”.

Turning to “Leucine-rich repeat serine/threonine-protein kinase 2 (Homo sapiens), Q5S007 R1398L”, the “effect of a mutation on the interaction” value is recorded as “decreasing interaction”.

As to “Leucine-rich repeat serine/threonine-protein kinase 2 (Homo sapiens), Q5S007 R1441C”, the “effect of a mutation on the interaction” value is “increasing interaction”.

Regarding “Leucine-rich repeat serine/threonine-protein kinase 2 (Homo sapiens), Q5S007 T1348N”, the “effect of a mutation on the interaction” value is on record as “decreasing interaction”.

Turning to “Leucine-rich repeat serine/threonine-protein kinase 2 (Homo sapiens), Q5S007 Y1699C”, the “effect of a mutation on the interaction” value was “increasing interaction”.

Source of the values: IntAct's records for PubMed 22363216.
